# US20220334106, “CONJUGATE” (DENSO CORPORATION, published 2022)
# T1: alpha-amylase (UniProt P0DUB6 P0DUB6:16-511)
# T1 sequence: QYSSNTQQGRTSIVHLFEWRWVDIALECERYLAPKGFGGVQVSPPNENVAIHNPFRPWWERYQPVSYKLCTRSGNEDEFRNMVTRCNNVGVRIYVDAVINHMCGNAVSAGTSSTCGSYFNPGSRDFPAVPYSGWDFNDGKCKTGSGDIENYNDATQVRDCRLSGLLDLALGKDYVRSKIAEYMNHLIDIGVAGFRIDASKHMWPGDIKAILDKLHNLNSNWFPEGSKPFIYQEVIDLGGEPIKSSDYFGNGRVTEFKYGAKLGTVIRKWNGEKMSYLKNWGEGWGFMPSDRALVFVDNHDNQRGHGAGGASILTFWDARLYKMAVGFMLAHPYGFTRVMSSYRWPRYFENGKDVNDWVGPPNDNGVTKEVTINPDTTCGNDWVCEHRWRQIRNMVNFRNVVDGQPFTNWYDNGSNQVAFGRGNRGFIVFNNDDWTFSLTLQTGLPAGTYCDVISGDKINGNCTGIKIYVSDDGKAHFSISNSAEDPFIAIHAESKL
# B1: DNA aptamer to SARS-CoV-2 spike RBD, alkaline phosphatase conjugate (ssDNA)
# DNA: CAGCACCGACCTTGTGCTTTGGGAGTGCTGGTCCAAGGGCGTTAATGGACA
# modifications: 5' biotin via C6 spacer
# Target: T1, alpha-amylase
# Assay: ELONA
# Conditions: tags: Lee Biosolutions 120-17
binder,measurement,value
B1,binding result,no binding
